Source: patent US20100286021A1, “Methods of Modulating Prokineticin 2 for Treatment of Stress Response and Anxiety-Related Disorders” (priority 2007, published 2010)

Legend:
PK2 mRNA in the PVN = conditions: compared with induction by 24 hours of food deprivation
Experimental: In situ hybridization was performed for detection. Animals were killed and brains were quickly dissected and stored at −80° C. until use. In situ hybridization was performed on coronal sections as described previously. The ^35S-hybridized slices were then coated with Kodak NTB2 autoradiographic emulsion and exposed for 1 month at 4° C.

[1] = Hot-plate pain test, morphine-induced analgesia; format: in vivo; conditions: subcutaneous injection, various concentrations, 55° C. hot plate, WT vs PK2^-/- mice
From the text: FIGS. 6A-6C show impaired stress-induced analgesia in PK2^-/- mice. […] (a and b) The hot-plate latency was monitored before or after stress. Animals were stressed by 3-min of cold-water swimming (a) or 5-min of tail suspension (b). Wild-type (closed circles); PK2^-/- (open circles). The black blocks indicate the stressing period. (c) The hot-plate latency was also monitored after subcutaneous injection of various concentrations of morphine. There was no genotypic difference in morphine-induced analgesia; n=12-15 mice/genotype *, P<0.05; unpaired t test. Error bars, SEM.
Pain perception and stress-induced analgesia was measured. All the pain tests were carried out on a hot plate with a 55° C. surface, on which no basal difference was observed between WT and PK2^-/- mice. The cut-off time was set to 1 min to prevent tissue damage. Stress was induced by forced swimming for 3 min in 10° C. water, or suspending the tail for 5 minutes.

[2] = Sleep/wake recording after ICV infusion; format: in vivo; conditions: rats, 5 μg ICV at ZT 14, following 4 hours (ZT 14-18), vs CSF
Experimental: (§1) (a) Artificial cerebrospinal fluid (CSF) or 5 μg of PK2 was infused ICV to rats at ZT 14. Slow wave sleep (SWS), rapid eye movement sleep (REM) and active wake (AW) during the following 4 hours (ZT 14-18) were averaged and presented as mean±SEM; n=6 rats/group. (b) CSF or 5 μg of PK2 was infused ICV to rats at ZT 2 (day) or ZT 14 (night), the food intake in the following 24 hours were measured periodically and presented as mean±SEM. n=6-10 rats/group. (c) CSF or 4 μg of PK2 was infused ICV into mice. Anxiety-like behavior was monitored with a light-dark box assay 1 hour after infusion. n=12 mice/group. (d) CSF or 4 μg of PK2 was infused ICV into mice. Immobility in a forced swimming test was measured 1 hour after infusion; n=12 mice/group. *, P<0.05; unpaired t test. Error bars, SEM.
Recording and analysis of sleep/wake was performed. The sleep/wake recording in rats was carried out as described in reference. Digital recording was visually scored as slow wave sleep (SWS), rapid eye movement sleep (REM) and active wake (AW). For the mice, electroencephalogram (EEG) and electromyogram (EMG) signals were recorded using a lightweight implant and cabling procedure as described. […] The signals were digitally filtered (EEG, 0.3-30 Hz; EMG, 2-100 Hz) and semi-automatically scored in 4 second epochs as wake, NREM, or REM sleep using SleepSign sleep scoring software (Kissei Comtec America, California). […]

[3] = Food intake after ICV infusion; format: in vivo; conditions: rats, 5 μg ICV at ZT 2 (day) or ZT 14 (night), following 24 hours, vs CSF
Experimental: as §1
Food intake was measured. Mice food intake measurement was performed using a Comprehensive Lab Animal Monitoring System (CLAMS, Columbus Instruments, Columbus, Ohio). Feeding data were collected every 10 min for each mouse over a period of 5 days. The daily food intake was the total food consumed during 24 hours. For rats, the food pellets in the food bin were measured manually every 4-8 hours after drug infusion. The food intake was the total amount of food loaded subtracted by the amount of food left.
Intracerebroventricular infusion was utilized. […]

[4] = Light-dark box assay (anxiety-like behavior) after ICV infusion; format: in vivo; conditions: mice, 4 μg ICV, 1 hour after infusion, vs CSF
Experimental: as §1
The light-dark box was divided into a lit compartment (30×20×25 cm, illumination 400 lux) and a dark compartment (15×20×25 cm) connected by a 4-cm tunnel. The experiment was started by placing the animal in the dark compartment.
Numbers of transitions, total time spent in the lit compartment, and latency until the first exit were recorded on video and quantified during 10 minutes.
(§2) Intracerebroventricular infusion was utilized. Rats with cannula fit to the lateral ventricle were purchased from Charles River laboratory. […]

[5] = Forced swimming test (depression-like behavior) after ICV infusion; format: in vivo; conditions: mice, 4 μg ICV, 1 hour after infusion, vs CSF
Experimental: as §1
The Porsolt forced swim test was utilized. Animals were placed individually in cylinders (height 25 cm, diameter 11 cm) filled with 8-cm-deep water (temperature 22±1° C.) for 6 minutes The total period of immobility during the 6 minutes was recorded. Immobility was defined as no volitional body or limb movement.
as §2

O=CC[C@@H](O)[C@H](O)[C@H](O)CO [2-DG, 2-Dexoyl-D-glucose]
induction of PK2 mRNA in the PVN (PK2 mRNA in the PVN): induction was mimicked

CN1CC[C@]23c4c5ccc(O)c4O[C@H]2[C@@H](O)C=C[C@H]3[C@H]1C5 [morphine]
morphine-induced analgesia (hot-plate latency) [1]: indistinguishable between WT and PK2^-/- mice

B1: PK2: regulatory peptide that activates two closely related G protein-coupled receptors (PKR1, PKR2) (protein, UniProt Q9HC23 28-129, looked up)
Prokineticin-2: AVITGACDKDSQCGGGMCCAVSIWVKSIRICTPMGKLGDSCHPLTRKNNFGNGRQERRKRKRSKRKKEVPFFGRRMHHTCPCLPGLACLRTSFNRFICLAQK
arousal level [2]: significantly increased arousal level | food intake [3]: circadian phase-independent suppression of food intake | general activity (total entries) [4]: without significant effect on general activity | time spent in the lit compartment [4]: significantly less time spent in the lit compartment | time spent on immobility [5]: significantly increased the time spent on immobility
